For experiment [1], the target named is T1, CD47 on the surface of human red blood cells (human, UniProt Q08722 19-323).
T1 construct: whole, on cells; Same protein as m3, on red blood cells; also called hRBC; RBC
Kind of experiment: FACS, RBC, 200 nM.
Procedure: (§1) The difference between the binding of the mutant to CD47 on the surface of tumor cells and CD47 on the surface of red blood cells was evaluated.

Experiment [2] addresses T2, recombinant antigen of the extracellular region of CD47 (Sino Biological, Cat: 12283-H08H) (human, UniProt Q08722 19-139).
T2 construct: extracellular domain; also called recombinant CD47 extracellular region; CD47 recombinant protein
Kind of experiment: Fortebio BLI, recombinant CD47.

In experiment [3] the target is T3, CD47 on the surface of tumor cells (human, UniProt Q08722 19-323).
T3 construct: whole, on cells; Same protein as m4; also called CD47 antigen on the surface of U937 and CCRF cells; SKOV-3
Kind of experiment: FACS, tumor cells, 2 nM.
Procedure: as §1

The target of experiment [4] is T2, recombinant antigen of the …. Kind of experiment: Fortebio BLI, antibody on AHC sensor, CD47 extracellular region 100 nM.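 Note: antibody held on the sensor through anti-human Fc capture, CD47 antigen in solution, association and dissociation phases each lasting 300 s.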
Procedure: The affinity between the obtained mutant antibody and the CD47 recombinant protein was determined by Fortebio. The antibody was immobilized on the surface of a sensor with the anti-human Fc capture antibody (AHC Sensor), and reacted with the recombinant antigen of the extracellular region of CD47 (with a working concentration of 100 nM) in the liquid phase. The duration for binding and dissociation was both 300 seconds. The kinetic parameters were determined.
Experiment [5] shares this target. Kind of experiment: Fortebio BLI.
Another experiment has as its target PD-L1 (human, UniProt Q9NZQ7 19-239, limits assumed). Kind of experiment: Fortebio BLI.
Experiment [6] concerns the target T3, CD47 on the surface of tumor cells. Kind of experiment: FACS, SKOV-3 tumor cells (no PD-L1), antibody 100 nM.
Procedure: (§2) In the experiment of analyzing the binding to human red blood cells, the antibody was used at a concentration of 1000 nM; and in the experiment of analyzing the binding to tumor cells, the antibody was used at a concentration of 100 nM.
Experiment [7] deals with T1, CD47 on the surface of human red blood …. Kind of experiment: FACS, human red blood cells, antibody 1000 nM.
Procedure: as §2

Positions count from the first letter of the chain named.

Chain of PD-L1 (Q9NZQ7 19-239 limits assumed): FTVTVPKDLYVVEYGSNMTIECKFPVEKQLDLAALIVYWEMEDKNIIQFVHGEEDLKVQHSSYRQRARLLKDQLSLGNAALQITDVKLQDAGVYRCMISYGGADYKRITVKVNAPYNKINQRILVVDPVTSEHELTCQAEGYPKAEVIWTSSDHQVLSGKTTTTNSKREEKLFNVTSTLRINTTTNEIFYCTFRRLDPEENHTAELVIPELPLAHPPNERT

B1: hz140-Hm13/hz182-Lm5 (antibody, V domains shown)
VH: EVQLVQSGAEVKKPGASVKVSCKASGYKFTNYVMSWVRQAPGQRLEWMGYINPYNDAIKYNEKFTGRVTITRDTSASTAYMELSSLRSEDTAVYYCAREGDFYANYGRLGFAYWGQGTLVTVSS
VL: DIQMTQSPSSLSASVGDRVTITCRASQDISNYLNWYQQKPGKAPKLLLYYTSRLHSGVPSRFSGSGSGTDYTLTISSLQPEDFATYFCQQGDGRPYTFGGGTKVEIKR
B1: the “FACS (MFI)” value in experiment [1] was found to be 3310 MFI. Further, in experiment [2], the Kd is 667 nM and the kon is 79900 M⁻¹ s⁻¹. In experiment [3], the “FACS (MFI)” value amounted to 39900 MFI.

B2: hz140-Hm13/hz182-Lm11 (antibody, V domains shown)
VH: B1 VH
VL: B1 VL with F83I, G93T, R94F
As for B2, the “FACS (MFI)” value in experiment [1] stood at 321 MFI; in experiment [3] it was 20100 MFI. In addition, in experiment [2], the equilibrium dissociation constant (Kd) worked out at 53.1 nM. Besides, the kon in experiment [2] was 103000 M⁻¹ s⁻¹.

B3: hz140-Hm13/hz182-Lm6 (antibody, V domains shown)
VH: B1 VH
VL: B1 VL with D92A, G93T
For B3, the “FACS (MFI)” value in experiment [1] is 695 MFI. In experiment [2], the Kd was found to be 12.5 nM and the kon came out at 114000 M⁻¹ s⁻¹. Moreover, in experiment [3], the “FACS (MFI)” value is 15900 MFI.

B4: hz140-Hm13/hz182-Lm8 (antibody, V domains shown)
VH: B1 VH
VL: B1 VL with D92A, Y96R
notes: also called h182Lmut8
For the molecule B4, the “FACS (MFI)” value in experiment [1] is 40800 MFI; in experiment [3] it was 39100 MFI. Also, in experiment [2], the Kd was found to be 12.9 nM. Further, the kon in experiment [2] is 234000 M⁻¹ s⁻¹.

B5: hz140-Hm13/hz182-L (antibody, V domains shown)
VH: B1 VH
VL: DIQMTQSPSSLSASVGDRVTITCRASQDISNYLNWYQQKPGKAPKLLLYYTSRLHSGVPSRFSGSGSGTDYTLTISSLQPEDFATYFCQQGAGRPYTFGGGTKVEIK
As for B5, in experiment [1], the “FACS (MFI)” value was 2060 MFI. Also, in experiment [2], the Kd worked out at 5.97 nM and the kon stood at 125000 M⁻¹ s⁻¹. Also, in experiment [3], the “FACS (MFI)” value worked out at 25800 MFI. Also, in experiment [4], the Kd stood at 6.2 nM, the koff is 0.00163 s⁻¹ and the kon is 263000 M⁻¹ s⁻¹.

B6: hz140-Hm13/hz182-Lm9 (antibody, V domains shown)
VH: B1 VH
VL: B1 VL with G93T, R94F
On to B6, for which the “FACS (MFI)” value in experiment [1] turned out to be 1750 MFI. In experiment [2], the Kd was 38.9 nM and the kon is 132000 M⁻¹ s⁻¹. For the same molecule, the “FACS (MFI)” value in experiment [3] stood at 16400 MFI.

B7: hz140-Hm13/hz182-Lm10 (antibody, V domains shown)
VH: B1 VH
VL: B1 VL with F83I, D92A, R94F
For the molecule B7, the “FACS (MFI)” value in experiment [1] turned out to be 326 MFI; in experiment [3], 19000 MFI. The Kd in experiment [2] came out at 5.14 nM. Further, the association rate constant (kon) in experiment [2] is 176000 M⁻¹ s⁻¹.

B8: anti-human CD47/PD-L1 bispecific antibody 2MW1531-p (bispecific antibody)
heavy 1: EVQLVQSGAEVKKPGASVKVSCKASGYKFTNYVMSWVRQAPGQRLEWMGYINPYNDAIKYNEKFTGRVTITRDTSASTAYMELSSLRSEDTAVYYCAREGDFYANYGRLGFAYWGQGTLVTVSSASTKGPSVFPLAPCSRSTSESTAALGCLVKDYFPEPVTVSWNSGALTSGVHTFPAVLQSSGLYSLSSVVTVPSSSLGTQTYTCNVDHKPSNTKVDKRVESKYGPPCPPCPAPEFLGGPSVFLFPPKPKDTLMISRTPEVTCVVVDVSQEDPEVQFNWYVDGVEVHNAKTKPREEQYNSTYRVVSVLTVLHQDWLNGKEYKCKVSNKGLPSSIEKTISKAKGQPREPQVYTLPPSQKEMTKNQVSLTCLVKGFYPSDIAVEWESNGQPENNYKTTPPVLDSDGSFFLYSKLTVDKSRWQEGNVFSCSVMHEALHNRYTQKSLSLSLGK
heavy 2: EVQLVQSGAEVKKPGATVKISCKVSGFNIKDIYMHWVQQAPGKGLEWMGRIDPANANTKYDPKFQDRVTITADTSTNTAYMELSSLRSEDTAVYYCASGQLGPLGFDYWGQGTTVTVSSASTKGPSVFPLAPCSRSTSESTAALGCLVKDYFPEPVTVSWNSGALTSGVHTFPAVLQSSGLYSLSSVVTVPSSSLGTQTYTCNVDHKPSNTKVDKRVESKYGPPCPPCPAPEFLGGPSVFLFPPKPKDTLMISRTPEVTCVVVDVSQEDPEVQFNWYVDGVEVHNAKTKPREEQYNSTYRVVSVLTVLHQDWLNGKEYKCKVSNKGLPSSIEKTISKAKGQPREPQVYTLPPSQEEMTKNQVSLTCLVKGFYPSDIAVEWESNGQPENNYKTTPPVLDSDGSFFLYSKLTVDKSRWQEGNVFSCSVMHEALHNHYTQESLSLSLGK
VL: B5 VL
notes: Knobs-into-holes: heavy chain A hz140-H-A (anti-CD47), heavy chain B hz182-H-B (anti-PD-L1), common light chain
For B8, in experiment [5], the Kd was determined as 8.56 nM, the koff amounted to 0.00131 s⁻¹ and the kon amounted to 153000 M⁻¹ s⁻¹. Also, in the experiment with PD-L1, binding was put at a Kd of 0.474 nM, the koff came out at 0.000147 s⁻¹ and the kon amounted to 310000 M⁻¹ s⁻¹. Also, in experiment [6], the “Binding to tumor cells (MFI)” value was determined as 35400 MFI.

B9: anti-human CD47/PD-L1 bispecific antibody 2MW1531-m7 (bispecific antibody, human IgG4 S228P, kappa)
heavy 1: B8 heavy 1
heavy 2: B8 heavy 2
VL: DIQMTQSPSSLSASVGDRVTITCRASQDISNYLNWYQQKPGKAPKLLLYYTSRLHSGVPSRFSGSGSGTDYTLTISSLQPEDFATYFCQQGAGFPYTFGGGTKVEIKRTVAAPSVFIFPPSDEQLKSGTASVVCLLNNFYPREAKVQWKVDNALQSGNSQESVTEQDSKDSTYSLSSTLTLSKADYEKHKVYACEVTHQGLSSPVTKSFNRGEC
notes: Knobs-into-holes with a common light chain
Regarding B9, in experiment [5], the equilibrium dissociation constant (Kd) worked out at 62.1 nM, the koff is 0.00814 s⁻¹ and the kon amounted to 131000 M⁻¹ s⁻¹. In the experiment with PD-L1, this molecule displayed a Kd of 0.917 nM, a koff of 0.00021 s⁻¹ and a kon of 230000 M⁻¹ s⁻¹. In addition, in experiment [6], the “Binding to tumor cells (MFI)” value stood at 28200 MFI.

B10: anti-human CD47/PD-L1 bispecific antibody 2MW1531-m8 (bispecific antibody)
heavy 1: B8 heavy 1
heavy 2: B8 heavy 2
VL: B9 VL with F94R, Y96R
notes: as for B9
Turning to B10, in experiment [5], the Kd turned out to be 107 nM, the koff amounted to 0.00937 s⁻¹ and the kon worked out at 87900 M⁻¹ s⁻¹. Further, in the experiment with PD-L1, binding was characterised by a dissociation constant (Kd) of 0.546 nM, the koff amounted to 0.000134 s⁻¹ and the kon was found to be 245000 M⁻¹ s⁻¹. Besides, in experiment [7], the “Binding to human red blood cells (MFI)” value came to 763 MFI. Besides, the “Binding to tumor cells (MFI)” value in experiment [6] turned out to be 28200 MFI.

B11: anti-human CD47/PD-L1 bispecific antibody 2MW1531-m1 (bispecific antibody)
heavy 1: B8 heavy 1
heavy 2: B8 heavy 2
VL: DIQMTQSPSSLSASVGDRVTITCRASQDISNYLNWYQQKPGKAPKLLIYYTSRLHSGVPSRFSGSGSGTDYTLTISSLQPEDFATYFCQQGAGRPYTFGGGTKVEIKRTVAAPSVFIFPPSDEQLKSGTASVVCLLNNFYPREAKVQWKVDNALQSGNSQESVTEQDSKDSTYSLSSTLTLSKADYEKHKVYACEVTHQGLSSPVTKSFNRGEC
notes: as for B9
Take B11: in experiment [5], the Kd amounted to 22.5 nM, the off-rate constant (koff) is 0.00213 s⁻¹ and the kon turned out to be 94600 M⁻¹ s⁻¹. In the experiment with PD-L1, this molecule showed a Kd of 1.59 nM, a koff of 0.000387 s⁻¹ and a kon of 243000 M⁻¹ s⁻¹. For the same molecule, the “Binding to human red blood cells (MFI)” value in experiment [7] turned out to be 888 MFI. Moreover, in experiment [6], the “Binding to tumor cells (MFI)” value is 33300 MFI.

B12: anti-human CD47/PD-L1 bispecific antibody 2MW1531-m5 (bispecific antibody)
heavy 1: B8 heavy 1
heavy 2: B8 heavy 2
VL: B9 VL with A92D, F94R
notes: as for B9
Turning to B12, in experiment [5], the Kd came to 10.8 nM, the koff worked out at 0.00101 s⁻¹ and the kon was determined as 93600 M⁻¹ s⁻¹. In the experiment with PD-L1, this molecule registered a Kd of 1.02 nM, a koff of 0.000357 s⁻¹ and an on-rate constant (kon) of 347000 M⁻¹ s⁻¹. For the same molecule, the “Binding to human red blood cells (MFI)” value in experiment [7] was found to be 807 MFI. The “Binding to tumor cells (MFI)” value in experiment [6] was 30900 MFI.

B13: anti-human CD47/PD-L1 bispecific antibody 2MW1531-m2 (bispecific antibody)
heavy 1: B8 heavy 1
heavy 2: B8 heavy 2
VL: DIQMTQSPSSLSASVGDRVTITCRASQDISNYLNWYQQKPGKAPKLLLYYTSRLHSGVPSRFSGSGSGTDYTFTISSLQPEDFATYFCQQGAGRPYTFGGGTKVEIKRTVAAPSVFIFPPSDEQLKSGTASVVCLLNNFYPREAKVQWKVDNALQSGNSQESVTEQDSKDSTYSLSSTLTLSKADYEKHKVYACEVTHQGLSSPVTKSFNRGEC
notes: as for B9
Regarding B13, in experiment [5], the Kd was found to be 81 nM, the koff came out at 0.00678 s⁻¹ and the kon is 83700 M⁻¹ s⁻¹. In the experiment with PD-L1, this molecule registered a Kd of 3.26 nM, a koff of 0.000696 s⁻¹ and a kon of 213000 M⁻¹ s⁻¹. For the same molecule, in experiment [7], the “Binding to human red blood cells (MFI)” value was 799 MFI. Besides, the “Binding to tumor cells (MFI)” value in experiment [6] was found to be 29900 MFI.

B14: anti-human CD47/PD-L1 bispecific antibody 2MW1531-m4 (bispecific antibody)
heavy 1: B8 heavy 1
heavy 2: B8 heavy 2
VL: B9 VL with S30T, F94R
notes: as for B9
Take B14: in experiment [5], the Kd amounted to 26.5 nM, the koff is 0.00321 s⁻¹ and the kon was 121000 M⁻¹ s⁻¹. In the experiment with PD-L1, the Kd amounted to 3.78 nM, the koff came out at 0.000707 s⁻¹ and the kon stood at 187000 M⁻¹ s⁻¹. For the same molecule, the “Binding to human red blood cells (MFI)” value in experiment [7] was 903 MFI. The “Binding to tumor cells (MFI)” value in experiment [6] worked out at 31100 MFI.

B15: anti-human CD47/PD-L1 bispecific antibody 2MW1531-m6 (bispecific antibody)
heavy 1: B8 heavy 1
heavy 2: B8 heavy 2
VL: B9 VL with G93T, F94R
notes: as for B9
As to B15, in experiment [5], the Kd was 84.5 nM, the koff worked out at 0.00879 s⁻¹ and the kon came to 104000 M⁻¹ s⁻¹. In the experiment with PD-L1, binding was characterised by a dissociation constant (Kd) of 1.73 nM, the koff turned out to be 0.000496 s⁻¹ and the kon stood at 287000 M⁻¹ s⁻¹. In experiment [7], the “Binding to human red blood cells (MFI)” value came out at 912 MFI. For the same molecule, the “Binding to tumor cells (MFI)” value in experiment [6] came to 24700 MFI.

Values taken from patent publication US20230406921A1 (MABWELL SHANGHAI BIOSCIENCE, published 2023).
